Experimental data as given in publication PMC10397247.

Assays:
[1] = target: T1, P1A-bN; test: two-hybrid library CCNG1;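 also: natural log of median RNA to DNA barcode read ratio; higher means stronger binding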
T1 chain: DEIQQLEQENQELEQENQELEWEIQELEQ

[2] = target: T2, 4H953-bN; test: two-hybrid library CCNG1;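 also: natural log of median RNA to DNA barcode read ratio; higher means stronger binding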
T2 chain: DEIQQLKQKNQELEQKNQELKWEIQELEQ

[3] = target: T3, 4H855-bN; test: two-hybrid library CCNG1;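 also: natural log of median RNA to DNA barcode read ratio; higher means stronger binding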
T3 chain: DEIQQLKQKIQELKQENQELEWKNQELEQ

[4] = target: T4, 4H918-bN; test: two-hybrid library CCNG1;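 also: natural log of median RNA to DNA barcode read ratio; higher means stronger binding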
T4 chain: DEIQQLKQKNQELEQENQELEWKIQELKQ

[5] = target: T5, 4H968-bN; test: two-hybrid library CCNG1;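 also: natural log of median RNA to DNA barcode read ratio; higher means stronger binding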
T5 chain: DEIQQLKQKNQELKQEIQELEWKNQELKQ

[6] = target: T6, 4H932-bA; test: two-hybrid library CCNG1;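 also: natural log of median RNA to DNA barcode read ratio; higher means stronger binding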
T6 chain: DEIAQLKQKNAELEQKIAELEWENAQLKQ

[7] = target: T7, 4H1406-bN; test: two-hybrid library CCNG1
T7 chain: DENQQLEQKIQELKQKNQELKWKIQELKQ

[8] = target: T8, 4H4038-bN; test: two-hybrid library CCNG1
T8 chain: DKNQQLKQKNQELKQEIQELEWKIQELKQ

[9] = target: T9, 4H2586-bA; test: two-hybrid library CCNG1
T9 chain: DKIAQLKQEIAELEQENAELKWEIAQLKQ

[10] = target: T10, 4H3907-bN; test: two-hybrid library CCNG1
T10 chain: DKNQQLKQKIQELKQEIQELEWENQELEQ

[11] = target: T11, 4H3601-bN; test: two-hybrid library CCNG1
T11 chain: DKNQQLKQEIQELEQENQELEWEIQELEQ

[12] = target: T12, 4H477-bN; test: two-hybrid library CCNG1
T12 chain: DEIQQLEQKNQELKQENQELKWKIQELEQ

[13] = target: T13, 4H3592-bN; test: two-hybrid library CCNG1
T13 chain: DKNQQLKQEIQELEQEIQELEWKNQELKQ

[14] = target: T14, APC4264-AA; test: two-hybrid library CCmax; settings: mean of both orientations
T14 chain: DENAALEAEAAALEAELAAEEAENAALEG

[15] = target: T15, APC2405-AA; test: two-hybrid library CCmax; settings: mean of both orientations
T15 chain: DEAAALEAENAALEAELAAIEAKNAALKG

[16] = target: T16, APC4011-AA; test: two-hybrid library CCmax; settings: mean of both orientations
T16 chain: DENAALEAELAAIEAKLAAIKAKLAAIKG

[17] = target: T17, APC1434-AA; test: two-hybrid library CCmax; settings: mean of both orientations
T17 chain: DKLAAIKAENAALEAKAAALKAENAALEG

[18] = target: T18, APC5383-AA; test: two-hybrid library CCmax; settings: mean of both orientations
T18 chain: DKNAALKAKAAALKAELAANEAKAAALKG

[19] = target: T19, APC3645-AA; test: two-hybrid library CCmax; settings: mean of both orientations
T19 chain: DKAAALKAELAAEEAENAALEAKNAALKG

[20] = target: T20, APC8910-AA; test: two-hybrid library CCmax; settings: mean of both orientations
T20 chain: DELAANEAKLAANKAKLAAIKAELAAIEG

[21] = target: T21, 4H2458-AA; test: two-hybrid library CCmax; settings: mean of both orientations
T21 chain: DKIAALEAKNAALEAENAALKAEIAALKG

[22] = target: T22, APC8191-AA; test: two-hybrid library CCmax; settings: mean of both orientations
T22 chain: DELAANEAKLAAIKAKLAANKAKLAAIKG

[23] = target: T23, 4H716-AA; test: two-hybrid library CCmax; settings: mean of both orientations
T23 chain: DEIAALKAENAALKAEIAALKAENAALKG

[24] = target: T24, 4H2447-AA; test: two-hybrid library CCmax; settings: mean of both orientations
T24 chain: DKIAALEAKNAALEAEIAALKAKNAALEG

[25] = target: T25, APC232-AA; test: two-hybrid library CCmax; settings: mean of both orientations
T25 chain: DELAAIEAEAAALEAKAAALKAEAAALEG

[26] = target: T26, 4H733-AA; test: two-hybrid library CCmax; settings: mean of both orientations
T26 chain: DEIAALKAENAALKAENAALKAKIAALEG

[27] = target: T27, 4H807-AA; test: two-hybrid library CCmax; settings: mean of both orientations
T27 chain: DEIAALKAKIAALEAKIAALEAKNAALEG

[28] = target: T28, APC6108-AA; test: two-hybrid library CCmax; settings: mean of both orientations
T28 chain: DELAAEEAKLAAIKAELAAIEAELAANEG

[29] = target: T29, APC2237-AA; test: two-hybrid library CCmax; settings: mean of both orientations
T29 chain: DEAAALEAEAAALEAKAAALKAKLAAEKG

[30] = target: T30, APC4436-AA; test: two-hybrid library CCmax; settings: mean of both orientations
T30 chain: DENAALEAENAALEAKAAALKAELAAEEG

[31] = target: T31, APC9319-AA; test: two-hybrid library CCmax; settings: mean of both orientations
T31 chain: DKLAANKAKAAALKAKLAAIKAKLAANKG

[32] = target: T32, 4H2290-AA; test: two-hybrid library CCmax
T32 chain: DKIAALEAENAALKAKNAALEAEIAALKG

[33] = target: T33, APC7099-AA; test: two-hybrid library CCmax; settings: mean of both orientations
T33 chain: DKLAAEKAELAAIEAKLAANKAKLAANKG

[34] = target: T34, 4H3330-AA; test: two-hybrid library CCmax; settings: mean of both orientations
T34 chain: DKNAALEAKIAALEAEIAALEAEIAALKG

[35] = target: T35, APC9096-AA; test: two-hybrid library CCmax; settings: mean of both orientations
T35 chain: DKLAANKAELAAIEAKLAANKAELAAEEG

[36] = target: T36, APC1015-AA; test: two-hybrid library CCmax; settings: mean of both orientations
T36 chain: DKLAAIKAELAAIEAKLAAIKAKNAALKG

Q: For DEIQQLKQKIQELKQENQELEWKNQELEQ [4H855-bN], which interaction score [1] is on record?
A: Its interaction score is -0.584.

Q: What about the interaction score [2] of the same binder?
A: Its interaction score is -0.67.

Q: And the interaction score [3]?
A: The interaction score was -0.495.

Q: And the interaction score [4]?
A: The interaction score was -0.862.

Q: And the interaction score [5]?
A: The interaction score was -1.39.

Q: What does the source list for DENQQLEQKIQELKQKNQELKWKIQELKQ [4H1406-bN]?
A: interaction score [6]: -1.96; interaction score [7]: -0.553; interaction score [8]: -1.69; interaction score [9]: 0.875; interaction score [10]: 0.347; interaction score [11]: 1.53; interaction score [12]: -2.09; interaction score [13]: 0.142

Q: With DKIAALEAENAALKAKNAALEAEIAALKG [4H2290-AA] as the binder, how does the interaction score [14] read?
A: The interaction score was -1.33.

Q: What about the interaction score [15] of the same binder?
A: The interaction score was -1.42.

Q: And the interaction score [16]?
A: The interaction score was -1.59.

Q: What about the interaction score [17] of the same binder?
A: The interaction score was -1.4.

Q: And the interaction score [18]?
A: Its interaction score is -1.86.

Q: What about the interaction score [19] of the same binder?
A: The interaction score was -1.44.

Q: What about the interaction score [20] of the same binder?
A: Its interaction score is -1.59.

Q: And the interaction score [21]?
A: The interaction score was -1.34.

Q: And the interaction score [22]?
A: The interaction score was -1.64.

Q: What about the interaction score [23] of the same binder?
A: Its interaction score is -1.57.

Q: What about the interaction score [24] of the same binder?
A: The interaction score was -1.32.

Q: And the interaction score [25]?
A: Its interaction score is -1.33.

Q: What about the interaction score [26] of the same binder?
A: The interaction score was -1.79.

Q: And the interaction score [27]?
A: The interaction score was -1.62.

Q: And the interaction score [28]?
A: Its interaction score is -1.54.

Q: And the interaction score [29]?
A: Its interaction score is -1.58.

Q: What about the interaction score [30] of the same binder?
A: Its interaction score is -1.53.

Q: What about the interaction score [31] of the same binder?
A: Its interaction score is -1.68.

Q: What about the interaction score [32] of the same binder?
A: Its interaction score is 2.

Q: What about the interaction score [33] of the same binder?
A: The interaction score was -1.57.

Q: What about the interaction score [34] of the same binder?
A: The interaction score was -1.24.

Q: What about the interaction score [35] of the same binder?
A: The interaction score was -1.24.

Q: And the interaction score [36]?
A: The interaction score was -1.41.
